The test has as its target EGFR-Flag (UniProt P00533). Kind of test: cell-based or functional assay.

In patent US20090036380A1, “Composition And Method For Brain Tumor Therapy” (Yeda Research and Development Co., Ltd., priority 2006, published 2009) one finds decrease in cell viability, Hek cells co-transfected with EGFR and Karet (XTT) data, which are given here for 1 substance.

Sequence of HA-Karet (full-length mouse Karet with N-terminal haemagglutinin tag) (Q8K2Y9 whole entry): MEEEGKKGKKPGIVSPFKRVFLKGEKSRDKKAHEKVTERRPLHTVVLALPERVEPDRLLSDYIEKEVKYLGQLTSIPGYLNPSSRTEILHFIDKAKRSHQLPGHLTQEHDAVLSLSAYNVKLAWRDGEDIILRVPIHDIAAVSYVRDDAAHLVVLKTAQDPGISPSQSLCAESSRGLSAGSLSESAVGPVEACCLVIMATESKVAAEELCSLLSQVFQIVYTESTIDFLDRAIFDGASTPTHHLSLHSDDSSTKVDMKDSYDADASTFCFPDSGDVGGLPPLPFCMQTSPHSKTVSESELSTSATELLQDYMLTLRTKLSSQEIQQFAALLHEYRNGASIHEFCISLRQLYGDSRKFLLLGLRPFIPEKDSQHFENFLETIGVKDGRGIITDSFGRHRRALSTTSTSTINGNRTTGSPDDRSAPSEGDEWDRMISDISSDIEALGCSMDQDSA

As to “HA-Karet (full-length mouse Karet with N-terminal haemagglutinin tag) (from UniProt Q8K2Y9 1-453)”, the decrease in cell viability, Hek cells co-transfected with EGFR and Karet (XTT) is 40%.
